The text below walks through data of article PMC12207366, “Protonated Glutamate and Aspartate Side Chains Can Recognize Phosphodiester Groups via Strong and Short Hydrogen Bonds in Biomacromolecular Complexes” (Angewandte Chemie (International Ed. in English), 2025).

As usually defined, the pKa is the negative logarithm of the acid dissociation constant. Low values mean a group that gives up its proton readily, high ones a group that holds its proton tightly.

The conditions of data set [1]: unstructured peptides; cited from earlier work.
In another data set the target is Glu190 (UniProt position 190, EALVEEEKTGD). The experiment in a line: ITC. The note with it: 20 °C, 200 mM NaCl, 50 mM Tris (pH 8.5-7.5), 50 mM BisTris (pH 7.0-6.0) or 50 mM Na-acetate (pH 5.5-4.0), each with 1 mM beta-mercaptoethanol.
The next data set concerns the target Glu218 (UniProt position 218, RALAEEKGLEF). The experiment in a line: ITC. As to conditions: 20 °C, 200 mM NaCl, 50 mM Tris (pH 8.5-7.5), 50 mM BisTris (pH 7.0-6.0) or 50 mM Na-acetate (pH 5.5-4.0), each with 1 mM beta-mercaptoethanol.
[2] abbreviates: c-di-GMP-bound protein (pKab of the thermodynamic cycle).
The mark [3] stands for this setting: ligand-free protein (pKaf of the thermodynamic cycle).

On to `N[C@@H](CCC(=O)O)C(=O)O` [glutamate], for which, in data set [1], the “pKa of side chain carboxylate group” value is recorded as ~4.4.

On to `N[C@@H](CC(=O)O)C(=O)O` [aspartate], for which, in data set [1], the “pKa of side chain carboxylate group” value was ~3.9.

“PilF GSPII-B domain (PilF159-302) Q190E (Thermus thermophilus; Q190E)”: the pKa with Glu190 (setting [2]) came to 7.5; in the data set with Glu190 (setting [3]), 6.3.

With “PilF GSPII-B domain (PilF159-302) Q218E (Thermus thermophilus; Q218E)”, the pKa in the data set with Glu218 (setting [2]) amounted to 7.1; with Glu218 (setting [3]) it was 5.9.
